# From patent US6974798B2, “Treatment of balance impairments” (Genentech, Inc., priority 1995, dated 2005)
# “Also recorded” adds a separate entry of the source.
# Legend:
# [1] = test system: vestibular ganglion neurons (VGNs); experiment: Blocking of neurotrophin survival-promoting effects by trkB-IgG / trkC-IgG in VGN culture; assay type: cell-based, rat; conditions: for effect on VGN cultures by themselves (without neurotrophin): 1 μg/ml, alone; for effect of trkB-IgG and trkC-IgG together on the effects of NT-4/5 and NT-3: both fusion proteins together
# Description: (§1) The effects of trkB or trkC agonists to enhance neuronal survival was determined using VGNs in cell culture. VGN cell culture was prepared as follows. Vestibular ganglia were dissected from postnatal day 5 (P5) Wistar rats and were incubated in a mixture of 0.125% trypsin and 0.125% collagenase for 25 min at 37° C. The enzyme was inactivated with a mixture of 0.005% soybean trypsin inhibitor (Sigma) and 0.005% DNase (Worthington) before trituration with 0.05% DNase in Eagle's Basal Medium (“BME”). After the undissociated tissues were separated by filtering with a Nylon meshwork (33 μm in pore size), the dissociated cells were preplated on a 35 mm untreated tissue culture dish for 25 min to enrich the neuronal population. Under these experimental procedures, about 3-5% of the cell population were vestibular ganglion neurons (VGNs) as determined by immunocytochemistry with a monoclonal antibody (N52; Boehringer) against neurofilament (200 kd). The cell suspension was finally plated on polylysine (500 μg/ml)laminin (20 μg/ml) coated 16-well LabTek slides in 200 μl of serum-free medium (BME plus serum-free supplement (Sigma I-1884), 1% BSA, 2 mM glutamine, and 5 mg/ml glucose) containing no antibiotics. Cells were plated at a density of 100,000/well.
# (§2) Cell counts and data analysis were performed as follows. After 2 days in culture, viable VGNs were identified by labeling with the neurofilament monoclonal antibody N52 and counted using a grid ocular reticule covering an area of 1 mm^2 under a Zeiss Axiophot microscope. For each culture, about 10 randomly selected fields were counted. In these experiments, cell counts were performed in the same way for control cultures. Data were collected from triplet cultures for each of the experimental groups. Data were then normalized as a percentage of the viable VGNs in the control cultures in each of the experiments.
# TrkB-IgG and trkC-IgG have been previously reported to be specific antagonists for NT-4/5 (or BDNF) and NT-3, respectively (Shelton et al., 1995). To confirm that the survival-promoting effects of NT-4/5, BDNF and NT-3 were specific, trkB-IgG or trkC-IgG fusion protein was added to the culture along with NT-4/5, BDNF or NT-3. All human recombinant neurotrophins (Genentech, Inc.) were added to the cultures at the time of plating. To block the effects of the neurotrophins, 1 μg/ml of trkB-IgG or trkC-IgG (kindly provided by Dr. Dave Shelton), specific antagonists for NT-4/5 (and BDNF) or NT-3, respectively (Shelton et al., 1995), was added to some of the experimental cultures at the same time when neurotrophins were added.
# [2] = cited from earlier work
# [3] = test system: vestibular ganglion neurons (VGNs); experiment: VGN survival in dissociated cell culture, serum-free medium, 2 days; assay type: cell-based, rat; conditions: for survival-promoting effect on VGNs: 10 ng/ml added at plating
# Description: as §1
# All human recombinant neurotrophins (obtained from Genentech, Inc.) were added to the cultures at the time of plating.
# as §2
# The effect of neurotrophins on cell survival was determined on VGNs which were dissociated from postnatal day 5 (P5) rat vestibular ganglia and plated in defined serum-free medium. Neurofilament protein immunocytochemistry using bright field microscopy was performed in the VGN cultures in serum-free medium in the absence or presence of 10 ng/ml of NT-4/5. In control cultures in serum-free medium without neurotrophins, about 35% of VGNs survived after 2 days. […] The survival-promoting effects of NT-4/5 on cultured VGNs were dose-dependent (FIG. 1).
# trkC receptor = trkC receptor (Homo sapiens, UniProt Q16288); conditions: cited from earlier work; for trkC binding of NT-3 mutants: relative to NT-3
# [4] = test system: vestibular ganglion neurons (VGNs); experiment: Protection of cultured VGNs from cisplatin neurotoxicity; assay type: cell-based, rat; conditions: for protective effect against cisplatin neurotoxicity: 1, 2 or 4 μg/ml cisplatin, 10 ng/ml factor, 2 days
# Description: as §1, §2
# (§3) The ability of trkB or trkC agonists to protect neurons from ototoxicity was determined using VGNs in cell culture. […] All human recombinant neurotrophins (Genentech, Inc.) were added to the cultures at the time of plating. To block the effects of the neurotrophins, 1 μg/ml of trkB-IgG or trkC-IgG (kindly provided by Dr. Dave Shelton), specific antagonists for NT-4/5 (and BDNF) or NT-3, respectively (Shelton et al., 1995), was added to some of the experimental cultures at the same time when neurotrophins were added. […] In other experiments, epidermal growth factor (EGF), basic fibroblast growth factor (βFGF) and insulin-like growth factor-1 (IGF-1) were added to the culture at the time of plating at a concentration of 10 ng/ml. […] In these experiments, cell counts were performed in the same way for control cultures.
# [5] = test system: vestibular ganglion neurons (VGNs); experiment: Protection of cultured VGNs against gentamicin neurotoxicity; assay type: cell-based, rat; conditions: FIG. 5; for protective effect against gentamicin neurotoxicity: 1, 2 or 3 mg/ml gentamicin, 10 ng/ml factor, 2 days
# Description: as §1, §2, §3
# trkB receptor = trkB receptor (Homo sapiens, UniProt Q16620); conditions: naturally occurring NGF versus BDNF; cited from earlier work
# [6] = test system: vestibular ganglion neurons (VGNs); experiment: Ototoxin-induced cell death of VGNs in culture; assay type: cell-based, rat
# Description: The ability of trkB or trkC agonists to protect neurons from ototoxicity was determined using VGNs in cell culture. […] All human recombinant neurotrophins (Genentech, Inc.) were added to the cultures at the time of plating. […]
# hair cells = conditions: Warchol et al., 1993, Lefebvre et al.; cited from earlier work
# [7] = culture containing cisplatin, FIG. 4
# trkC receptor, sequence (Q16288 32-839): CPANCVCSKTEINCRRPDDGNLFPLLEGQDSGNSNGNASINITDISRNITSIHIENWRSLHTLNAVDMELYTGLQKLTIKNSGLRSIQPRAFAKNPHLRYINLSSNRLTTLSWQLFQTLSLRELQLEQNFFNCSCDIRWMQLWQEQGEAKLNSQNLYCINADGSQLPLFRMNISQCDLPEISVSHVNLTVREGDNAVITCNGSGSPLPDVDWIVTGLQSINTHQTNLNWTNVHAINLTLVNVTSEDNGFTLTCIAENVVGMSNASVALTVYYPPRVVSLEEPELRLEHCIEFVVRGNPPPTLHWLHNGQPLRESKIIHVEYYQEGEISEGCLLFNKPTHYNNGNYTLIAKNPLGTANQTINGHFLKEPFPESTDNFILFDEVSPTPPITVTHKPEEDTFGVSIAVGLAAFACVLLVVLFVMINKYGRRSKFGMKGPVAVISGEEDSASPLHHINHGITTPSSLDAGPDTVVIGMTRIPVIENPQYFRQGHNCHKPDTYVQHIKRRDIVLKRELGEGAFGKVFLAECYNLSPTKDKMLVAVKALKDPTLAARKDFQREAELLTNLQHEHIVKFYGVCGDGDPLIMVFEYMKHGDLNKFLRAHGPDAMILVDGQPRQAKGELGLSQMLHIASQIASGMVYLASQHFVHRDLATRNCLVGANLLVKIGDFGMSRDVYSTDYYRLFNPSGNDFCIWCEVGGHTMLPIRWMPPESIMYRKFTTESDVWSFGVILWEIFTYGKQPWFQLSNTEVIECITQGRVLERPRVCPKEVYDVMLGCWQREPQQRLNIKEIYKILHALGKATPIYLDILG
# trkB receptor, sequence (Q16620 32-822): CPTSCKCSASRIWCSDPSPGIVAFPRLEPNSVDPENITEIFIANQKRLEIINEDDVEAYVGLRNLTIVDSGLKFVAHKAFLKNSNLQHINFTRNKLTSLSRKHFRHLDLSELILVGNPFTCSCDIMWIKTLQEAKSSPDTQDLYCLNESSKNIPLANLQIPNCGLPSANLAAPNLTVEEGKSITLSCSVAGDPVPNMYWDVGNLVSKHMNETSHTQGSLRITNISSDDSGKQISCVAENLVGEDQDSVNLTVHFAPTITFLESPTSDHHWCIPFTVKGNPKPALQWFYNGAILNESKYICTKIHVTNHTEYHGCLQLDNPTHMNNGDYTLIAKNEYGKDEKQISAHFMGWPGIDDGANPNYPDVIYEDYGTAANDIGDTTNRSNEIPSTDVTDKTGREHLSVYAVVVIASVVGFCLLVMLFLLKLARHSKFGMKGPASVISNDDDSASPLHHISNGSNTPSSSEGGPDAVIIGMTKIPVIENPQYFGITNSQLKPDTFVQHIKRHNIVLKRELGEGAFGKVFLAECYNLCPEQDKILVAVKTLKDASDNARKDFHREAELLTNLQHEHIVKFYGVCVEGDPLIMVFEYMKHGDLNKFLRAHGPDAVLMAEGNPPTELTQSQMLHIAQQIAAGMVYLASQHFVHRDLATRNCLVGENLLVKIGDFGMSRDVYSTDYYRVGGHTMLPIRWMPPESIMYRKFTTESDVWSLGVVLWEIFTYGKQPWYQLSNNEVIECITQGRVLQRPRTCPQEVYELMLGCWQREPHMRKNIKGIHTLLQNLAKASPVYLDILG
molecule,measurement,setting,value
"trkC-IgG: trkC-IgG fusion protein, specific antagonist for NT-3 (Shelton et al., 1995)",inhibition of the survival-promoting effect of NT-3,"[1]; 1 μg/ml antagonist, 10 ng/ml NT-3, FIG. 3",inhibited the activity of NT-3; also recorded: inhibit
same,effect on VGN cultures by themselves (without neurotrophin),[1],did not show detectable effects
same,effect of trkB-IgG and trkC-IgG together on the effects of NT-4/5 and NT-3,[1],blocked
[H]/N=C(/N)N[C@H]1[C@H](O)[C@@H](O)[C@H](O[C@@H]2O[C@@H](C)[C@](O)(C=O)[C@H]2O[C@@H]2O[C@@H](CO)[C@H](O)[C@@H](O)[C@@H]2NC)[C@@H](N/C(N)=N\[H])[C@@H]1O [streptomycin],incidence of vestibular impairment,[2]; 1 gram per day,25%
same,patients displaying some vestibular impairment,[2]; 2 grams daily for 60 to 120 days,~75%
βFGF: basic fibroblast growth factor,survival-promoting effect on VGNs,"[3]; 2 days, FIG. 2",not affected; also recorded: did not produce significant effects
R31A: NT-3 mutant with mutation at position R31 to alanine,trkC binding of NT-3 mutants,trkC receptor,increased trkC binding
IGF-1: insulin-like growth factor-1,survival-promoting effect on VGNs,"[3]; 2 days, FIG. 2",not affected; also recorded: did not produce significant effects
"NGF: human recombinant nerve growth factor, ligand of trkA",survival-promoting effect on VGNs,"[3]; 2 days, FIG. 2",did not show any detectable effect; also recorded: did not produce significant effects
same,protective effect against cisplatin neurotoxicity,[4]; FIG. 4,no protective effects
same,protective effect against gentamicin neurotoxicity,[5],showed no effect
same,KD at trkB relative to BDNF (fold lower),trkB receptor,500-1000 fold
same,KD at trkC relative to NT-3 (fold lower),trkC receptor; naturally occurring NGF versus NT-3,500-1000 fold
EGF: epidermal growth factor,survival-promoting effect on VGNs,"[3]; 2 days, FIG. 2",not affected; also recorded: did not produce significant effects
gentamicin,VGN death,[6]; 3 mgiml of gentamicin,a majority of VGNs died
same,inhibition of VGN survival by the ototoxin,"[6]; added at plating at various concentrations, FIGS. 4 and 5",dose-dependent inhibition of VGN survival
same,concentrations at which induced VGN cell death was observed,[6]; present experiments,1000 to 3000 µg/mL
same,concentrations needed to destroy hair cells,hair cells,500 to 1000 µg/mL
"trkB-IgG: trkB-IgG fusion protein, specific antagonist for NT-4/5 and BDNF (Shelton et al., 1995)",inhibition of the survival-promoting effect of BDNF,"[1]; 1 μg/ml antagonist, 10 ng/ml BDNF, FIG. 3",completely abolished; also recorded: inhibit
same,inhibition of the survival-promoting effect of NT-4/5,"[1]; 1 μg/ml antagonist, 10 ng/ml NT-4/5, FIG. 3",completely abolished; also recorded: inhibit
same,effect on VGN cultures by themselves (without neurotrophin),[1],did not show detectable effects
same,effect of trkB-IgG and trkC-IgG together on the effects of NT-4/5 and NT-3,[1],blocked
"E92A: NT-3 mutant with mutation at position E92 to alanine (protein, UniProt P20783 139-257, looked up, variant E92A) Neurotrophin-3: YAEHKSHRGEYSVCDSESLWVTDKSSAIDIRGHQVTVLGEIKTGNSPVKQYFYETRCKEARPVKNGCRGIDDKHWNSQCKTSQTYVRALTSANNKLVGWRWIRIDTSCVCALSRKIGRT",trkC binding of NT-3 mutants,trkC receptor,increased trkC binding
"NT-3: human recombinant neurotrophin-3, ligand of trkC (protein) YAEHKSHRGEYSVCDSESLWVTDKSSAIDIRGHQVTVLGEIKTGNSPVKQYFYETRCKEARPVKNGCRGIDDKHWNSQCKTSQTYVRALTSENNKLVGWRWIRIDTSCVSALSRKIGRT",survival-promoting effect on VGNs,"[3]; 2 days, FIG. 2",significant effect (p<0.01) but was less potent than NT-4/5 and BDNF; also recorded: very significant survival promoting effects
same,protective effect against cisplatin neurotoxicity,[4]; FIG. 4,"Significant protective, but less potent effects; also recorded: very significant protecting effects at all three doses"
same,protective effect against gentamicin neurotoxicity,[5],significantly protective effect; also recorded: very significant protective effects at all three doses of gentamicin
"BDNF: human recombinant brain-derived neurotrophic factor, ligand of trkB (protein) HSDPARRGELSVCDSISEWVTAADKKTAVDMSGGTVTVLEKVPVSKGQLKQYFYETKCNPMGYTKEGCRGIDKRHWNSQCRTTQSYVRALTMDSKKRIGWRFIRIDTSCVTLTIKRGR",survival-promoting effect on VGNs,"[3]; 2 days, FIG. 2",equivalent to NT-4/5; also recorded: very significant survival promoting effects
same,increase in the number of surviving VGNs,"[3]; P5 rat VGNs, 2 days in serum-free medium, versus control culture without neurotrophin",2 fold
same,protective effect against cisplatin neurotoxicity,[4]; FIG. 4,equivalent effectiveness; also recorded: very significant protecting effects at all three doses
same,protective effect against gentamicin neurotoxicity,[5],an effect equivalent to NT-4/5; also recorded: very significant protective effects at all three doses of gentamicin
"NT-4/5: human recombinant neurotrophin-4/5 (Genentech, Inc.), ligand of trkB (protein) GVSETAPASRRGELAVCDAVSGWVTDRRTAVDLRGREVEVLGEVPAAGGSPLRQYFFETRCKADNAEEGGPGAGGGGCRGVDRRHWVSECKAKQSYVRALTAHAQGRVGWRWIRIDTACVCTLLSRTGRA",survival-promoting effect on VGNs,"[3]; 2 days, FIG. 2",very significant survival promoting effects
same,"additive/synergistic effect on VGN survival, NT-4/5 combined with BDNF","[3]; 10 ng/ml, FIG. 2",no synergistic effects were observed
same,"additive/synergistic effect on VGN survival, NT-4/5 combined with NT-3","[3]; 10 ng/ml, FIG. 2",no synergistic effects were observed
same,survival-promoting effect on VGNs over the dose range,"[3]; NT-4/5 at different concentrations, 2 days, FIG. 1",dose-dependent; also recorded: very significant survival-promoting effects
same,concentration of maximal survival-promoting effect,"[3]; doses from 0.1 to 50 ng/ml examined, FIG. 1",10 ng/mL
same,number of surviving VGNs relative to cisplatin alone and to control,"[4]; 1 μg/ml or 2 μg/ml cisplatin, 10 ng/ml neurotrophin",higher than the control culture without cisplatin
same,VGN survival,"[4]; 4 μg/ml cisplatin, 10 ng/ml neurotrophin, FIG. 4",about 60 % of the survival levels of control cultures in the absence of cisplatin
same,protective effect against cisplatin neurotoxicity,[4]; FIG. 4,significantly ameliorated the toxic effects of cisplatin; also recorded: very significant protecting effects at all three doses
same,"additive effect, NT-4/5 combined with BDNF, cisplatin culture",[4]; [7],no additive effects were observed
same,"additive effect, NT-4/5 combined with NT-3, cisplatin culture",[4]; [7],no additive effects were observed
same,protective effect against gentamicin neurotoxicity,[5],very significant protective effects at all three doses of gentamicin
same,"additive effect, NT-4/5 combined with BDNF, gentamicin culture",[5]; culture containing gentamicin,no additive effects were observed
same,"additive effect, NT-4/5 combined with NT-3, gentamicin culture",[5]; culture containing gentamicin,no additive effects were observed
